Results on one substance are retold here after article PMC5923308.

Like-named read-outs stand apart in the source and are kept apart here.

Assay [1] concerns the target crotoxin (CTX) from Crotalus durissus terrificus venom, heterodimer of CA and CB (Crotalus durissus terrificus).
Assay [2] addresses crotoxin basic subunit CB (phospholipase A2) from Crotalus durissus terrificus (Crotalus durissus terrificus) (UniProt P0CG56).
Assay [3] has as its target crotoxin (CTX) from Crotalus durissus terrificus venom, heterodimer of CA and CB (Crotalus durissus terrificus). This is another data set of the same source.
The target of assay [4] is crotoxin basic subunit CB (phospholipase A2) from Crotalus durissus terrificus (Crotalus durissus terrificus) (UniProt P0CG56). This is another data set of the same source.
Assay [5] shares this target. The assay is described as follows: ELISA.
The target is the same in assay [6]. The assay is described as follows: ELISA. This is another data set of the same source.
Assay [7] deals with crotoxin (CTX) from Crotalus durissus terrificus venom, heterodimer of CA and CB (Crotalus durissus terrificus). The assay can be described thus: SPR; Biacore T200; CTX amine-coupled on a CM5 chip; VHH 2.5 to 0.002 µM in HBS-p (10 mM HEPES, 150 mM NaCl, 3.4 mM EDTA, 0.005% Tween 20, pH 7.4); 30 µL/min, 25 °C; 1:1 Langmuir model.
The target is the same in assay [8]. The assay is described as follows: SPR; Biacore T200; CTX immobilised on a CM5 chip by EDC/NHS coupling (10 mM acetate, pH 5.5); VHHs injected at 2.5 to 0.002 uM in HBS-p (10 mM HEPES, 150 mM NaCl, 3.4 mM EDTA, 0.005% Tween 20, pH 7.4); 30 uL/min, 25 °C; 1:1 Langmuir model.

In assay [1], VHH KF498604 (clone Cb-16) returned an inhibition of phospholipase activity on acyl-NBD-PC fluorescent phospholipids, toxin pre-incubated with VHH 30 min at 37 °C, toxin/VHH 1:5 to 1:40 (w/w) of 80%. Also, the inhibition of phospholipase activity on acyl-NBD-PC fluorescent phospholipids, toxin pre-incubated with VHH 30 min at 37 °C, toxin/VHH 1:5 to 1:40 (w/w) in assay [2] came out at 80%. Besides, in assay [3], the reduction of plasma creatine kinase in Swiss mice 3 h after i.m. injection of CTX (1.5 µg) pre-incubated with VHH at 1:10, 1:20 and 1:40 (w/w) (46%, 63%, 78%), against CTX alone stood at 78.8%. This substance also displayed a reduction of LDH release from murine C2C12 myotubes after 3 h with CB (20 µg) pre-incubated with VHH at 1:2.5 (w/w), against CB alone in assay [4] of 59.3%. In assay [5], this substance registered a % of the unheated sample's ELISA signal after 1 h at 85 °C of more than 75% and a % of the unheated sample's ELISA signal after 1 h at 95 °C of 100%. The % of the unheated sample's ELISA signal after 1 h at 85 °C in assay [6] was found to be 85%. The substance further registered a Kd in assay [7] of 81.3 nM. In assay [8], this substance came in with a koff of 0.00554 s⁻¹ and an on-rate constant (kon) of 68100 M⁻¹ s⁻¹.
